Measured values as given in PMC5956896.

How the values were obtained:
Assay in all cases: pull-down
[1] = biological target: His6-GB1 tagged ITK PHTH (C96E/T110I) domain
ITK PHTH L51D = biological target: ITK PHTH L51D
ITK PHTH E56A = biological target: ITK PHTH E56A

disruption of the interaction by 5 μM IP(1,3,4,5)P4 [1]: > 50% | decrease in binding compared to wild type ITK PHTH (ITK PHTH L51D): 50% | decrease in binding compared to wild type ITK PHTH (ITK PHTH E56A): 50%
Substance: His6 tagged mouse ITK kinase domain (residues 356-619) (domain or fragment)
